# From patent publication US20220204565A1 (DREXEL UNIVERSITY, published 2022)
# Where two headings read alike, the source gives them in different places. Bridges are numbered along the chain shown (N, C = ends). Where no end group is shown, it is not given here. [ ]: non-standard residue; d: D form. triazolo‑Pro(2,4-diMe-benzyl) = triazolo-proline with ortho- and para-methyl phenyl methyl on the triazole; triazolo‑Pro(3,4-diMe-benzyl) = triazolo-proline with para- and meta-methyl phenyl methyl on the triazole; triazolo‑Pro(3,5-diMe-benzyl) = triazolo-proline with two meta-methyl phenyl methyl on the triazole; triazolo‑Pro(2-Me-benzyl) = triazolo-proline with ortho-methyl phenyl methyl on the triazole; triazolo‑Pro(3-Me-benzyl) = triazolo-proline with meta-methyl phenyl methyl on the triazole; triazolo‑Pro(4-Me-benzyl) = triazolo-proline with para-methyl phenyl methyl on the triazole; triazolo‑Pro(4-tBu-phenyl) = triazolo-proline with para-tert-butylphenyl on the triazole; triazolo‑Pro(ferrocenyl) = triazolo-proline carrying a ferrocene moiety on the triazole; triazolo‑Pro(benzyl) = triazolo-proline with phenyl methyl moiety on the triazole; triazolo‑Pro(biphenyl) = triazolo-proline with biphenyl group on the triazole
# B1: cPT 25 (peptide)
# peptide: DNI[triazolo‑Pro(2-Me-benzyl)]WK-NH2
# modifications: lactam 1-6
# B2: cPT 26 (peptide)
# peptide: DNI[triazolo‑Pro(3-Me-benzyl)]WK-NH2
# modifications: lactam 1-6
# B3: cPT 27 (peptide)
# peptide: DNI[triazolo‑Pro(2,4-diMe-benzyl)]WK-NH2
# modifications: lactam 1-6
# B4: cPT 28 (peptide)
# peptide: DNI[triazolo‑Pro(3,5-diMe-benzyl)]WK-NH2
# modifications: lactam 1-6
# B5: cPT 29 (peptide)
# peptide: DNI[triazolo‑Pro(3,4-diMe-benzyl)]WK-NH2
# modifications: lactam 1-6
# B6: cPT 36 (29N-2) (peptide)
# peptide: DNI[4‑(4-(4-(thiophen-2-yl)phenyl)-1H-1,2,3-triazol-1-yl)proline]WK-NH2
# modifications: lactam 1-6
# notes: also called Compound 29N-2
# B7: cPT 3 (AAR029b) (peptide)
# peptide: DNI[triazolo‑Pro(ferrocenyl)]WK-NH2
# modifications: lactam 1-6
# notes: Ferrocene-containing parent cyclic peptide triazole; also called lead cPT 3
# B8: cPT 18 (peptide)
# peptide: DNI[triazolo‑Pro]WK-NH2
# modifications: lactam 1-6; not fully specified
# B9: cPT 19 (peptide)
# peptide: DNI[triazolo‑Pro(benzyl)]WK-NH2
# modifications: lactam 1-6
# B10: cPT 20 (peptide)
# peptide: DNIPWK-NH2
# modifications: lactam 1-6; not fully specified (residue 4); also: further groups not given here
# B11: cPT 21 (peptide)
# peptide: DNI[triazolo‑Pro(4-iPr-phenyl)]WK-NH2
# modifications: lactam 1-6
# B12: cPT 22 (peptide)
# peptide: DNI[triazolo‑Pro(4-tBu-phenyl)]WK-NH2
# modifications: lactam 1-6
# B13: cPT 23 (peptide)
# peptide: DNI[triazolo‑Pro(biphenyl)]WK-NH2
# modifications: lactam 1-6
# B14: cPT 24 (peptide)
# peptide: DNI[triazolo‑Pro(4-Me-benzyl)]WK-NH2
# modifications: lactam 1-6
# Tests used:
# [1] = molecular target: T1, wild type monomeric full-length HIV-1 YU-2 gp120 (HIV-1 YU-2, UniProt P35961 32-498); test: SPR competition: gp120 YU-2 with increasing peptide over immobilised soluble CD4; competitor CD4
# T1 construct: domain: gp120; also called gp120YU-2; gp120 YU-2
# Procedure: (§1) For kinetic analyses, typically 2000-3000 RUs of protein reagents are immobilized on SPR chips, and analytes are passed over the surface at 50-100 μL/min. Surface regeneration is achieved by a 5 μL injection of 10 mM HCl solution at 100 μL/min.
# (§2) Data analysis of SPR competition data was performed using BIAevaluation v4.1.1 software (GE). To correct for nonspecific binding, response signals from buffer injection and from control flow cell were subtracted from all sensorgrams. […] The inhibition curve was plotted and then fitted using the four-parameter equation as shown below using OriginPro 8 graphing software.
# [2] = molecular target: T1, wild type monomeric full-length HIV-1 …; test: SPR competition: gp120 YU-2 with increasing peptide over immobilised 17b; competitor 17b
# Procedure: as §1, §2
# [3] = molecular target: HIV-1 BaL.01 Env gp160 on pseudovirus (HIV-1 BaL.01); test: cell-based or functional assay
# [4] = molecular target: HIV-1 BaL.01 Env gp160 on pseudovirus (HIV-1 BaL.01); test: cell-based or functional assay; remark: listed apart in the source
# [5] = molecular target: T1, wild type monomeric full-length HIV-1 …; test: SPR competition: fixed HIV-1 YU-2 gp120 mixed with rising concentrations of 36 and passed over immobilized soluble CD4; y axis % gp120 binding to CD4 falls from about 97 to about 10 between about 5 and 2500 nM
# Procedure: as §1, §2
# [6] = molecular target: T1, wild type monomeric full-length HIV-1 …; test: SPR competition: gp120 YU-2 with increasing peptide over immobilised soluble CD4; competitor CD4; remark: listed apart in the source
# Procedure: as §1, §2
# [7] = molecular target: T1, wild type monomeric full-length HIV-1 …; test: ITC with monomeric gp120 YU-2
# Procedure: (§3) The resulting heat changes were integrated, and the values obtained were fitted to a quadratic binding equation (one site binding model).
# (§4) cPT dissociation constants were determined at 25° C. on a VP-Isothermal Titration Calorimeter (VP-ITC) system (MicroCal™, GE Healthcare, Freiburg). […] The resulting heat change upon injection was integrated over a time range of 300 sec, and the obtained values were fitted to a standard single-site binding model using ORIGIN®.
# [8] = molecular target: T1, wild type monomeric full-length HIV-1 …; test: SPR competition: gp120 YU-2 with increasing peptide over immobilised 17b; competitor 17b; remark: listed apart in the source
# Procedure: as §1, §2
# [9] = molecular target: T1, wild type monomeric full-length HIV-1 …; test: ITC, peptide titrated into 30 µM full-length gp120 YU-2, 25 °C, PBS pH 7.3
# Procedure: as §3, §4
# [10] = molecular target: T1, wild type monomeric full-length HIV-1 …; test: SPR competition: fixed HIV-1 YU-2 gp120 mixed with rising concentrations of 36 and passed over immobilized 17b; y axis % gp120 binding to 17b falls from about 100 to near 0 between about 2 and 2500 nM
# Procedure: as §1, §2
# [11] = molecular target: T1, wild type monomeric full-length HIV-1 …; test: SPR competition: gp120 YU-2 with increasing peptide over immobilised soluble CD4; competitor CD4; CD4 competition column, not 17b competition
# Procedure: as §1, §2
binder,measurement,setting,value
B1,IC50,[1],132 nM
same,IC50,[2],128 nM
same,HIV-1Bal.01 infection inhibition IC50,[3],5100 nM
same,"HIV-1 cell infection inhibition, fold lower potency against cPT 24",[4],~28 fold
B2,IC50,[1],234 nM
same,IC50,[2],228 nM
same,HIV-1Bal.01 infection inhibition IC50,[3],220 nM
B3,IC50,[1],130 nM
same,IC50,[2],136 nM
same,HIV-1Bal.01 infection inhibition IC50,[3],302 nM
B4,IC50,[1],926 nM
same,IC50,[2],918 nM
same,HIV-1Bal.01 infection inhibition IC50,[3],2000 nM
B5,IC50,[1],2800 nM
same,IC50,[2],2600 nM
same,HIV-1Bal.01 infection inhibition IC50,[3],8000 nM
B6,IC50,[5],66 nM
same,IC50,[6],~66 nM
same,-TΔS,[7],-4.74 kcal/mol
same,IC50,[8],~56 nM
same,Kd,[9],350 nM
same,ΔH,[9],-4.07 kcal/mol
same,ΔS,[9],0.0159 kcal/mol
same,HIV-1 infection inhibition IC50,[4],~105 nM
same,IC50,[10],56 nM
B7,-TΔS,[7],-2.75 kcal/mol
same,Kd,[9],415 nM
same,ΔH,[9],-5.96 kcal/mol
same,ΔS,[9],0.00922 kcal/mol
same,HIV-1Bal.01 infection inhibition IC50,[4],~237 nM
B8,IC50,[2],647 nM
same,IC50,[11],614 nM
same,HIV-1Bal.01 infection inhibition IC50,[3],1400 nM
same,HIV-1 cell infection inhibition IC50,[4],~1300 nM
B9,IC50,[1],257 nM
same,IC50,[2],269 nM
same,HIV-1Bal.01 infection inhibition IC50,[3],438 nM
B10,IC50,[1],956 nM
same,IC50,[2],820 nM
same,HIV-1Bal.01 infection inhibition IC50,[3],1200 nM
B11,IC50,[1],1200 nM
same,IC50,[2],1260 nM
same,HIV-1Bal.01 infection inhibition IC50,[3],900 nM
B12,IC50,[1],150 nM
same,IC50,[2],120 nM
same,HIV-1Bal.01 infection inhibition IC50,[3],350 nM
B13,IC50,[1],680 nM
same,IC50,[2],720 nM
same,HIV-1Bal.01 infection inhibition IC50,[3],269 nM
B14,IC50,[1],80 nM
same,IC50,[2],74 nM
same,HIV-1Bal.01 infection inhibition IC50,[3],180 nM
